Data from publication PMC4232046, “The Janus transcription factor HapX controls fungal adaptation to both iron starvation and iron excess”.

Biological target: HapX(24-158) (Aspergillus fumigatus, UniProt Q4WER3 24-158)
Assay: SPR; HapX alone, no CBC; SPR Biacore T200, 25 C; 10 mM phosphate pH 7.4, 2.7 mM KCl, 137 mM NaCl, 1 mM DTT, 0.005% surfactant P20, 10 ug/ml poly(dI-dC); biotin-DNA on streptavidin CM3 chip
Settings: protein: recombinant; tags: MBP fusion cleaved with TEV; extended N-terminus with TEV site; chain copies: 2; label: 5' biotin on strand 1; blunt

Chain of HapX(24-158) (Q4WER3 24-158): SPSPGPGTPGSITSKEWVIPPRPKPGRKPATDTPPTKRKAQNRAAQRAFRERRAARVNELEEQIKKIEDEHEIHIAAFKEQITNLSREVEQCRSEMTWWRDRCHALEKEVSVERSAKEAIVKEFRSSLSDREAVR

B1: cccAp-369-37 (dsDNA)
DNA 1: AAATCCACCAATCAACGCCTCCGTGATTGTCAGCAAT
DNA 2: ATTGCTGACAATCACGGAGGCGTTGATTGGTGGATTT
  Kd: 171 nM
